Experimental data taken from patent publication US20190338029A1 (Y BIOLOGICS, published 2019).

T1: hCD3εε chains
T1 epsilon: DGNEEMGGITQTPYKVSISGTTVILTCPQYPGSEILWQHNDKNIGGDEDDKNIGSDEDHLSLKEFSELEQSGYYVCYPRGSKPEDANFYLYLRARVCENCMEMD

T2: hCD3εγ chains
T2 construct: copies: 1 + 1
T2 epsilon: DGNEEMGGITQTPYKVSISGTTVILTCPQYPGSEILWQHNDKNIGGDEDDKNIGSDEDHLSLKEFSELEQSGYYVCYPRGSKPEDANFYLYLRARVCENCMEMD
T2 gamma: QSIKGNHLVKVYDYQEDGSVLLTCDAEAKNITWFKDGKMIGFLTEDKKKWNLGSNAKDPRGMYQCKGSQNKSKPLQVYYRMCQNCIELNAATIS


How the values were obtained:
[1] = target: T3, PD-L1 (PD-1/PD-L1 Blockade Bioassay kit, Promega) (UniProt Q9NZQ7 19-290, limits assumed); experiment: cell-based or functional assay
human PD-L1 [2] = target: T4, human PD-L1 (human, UniProt Q9NZQ7 19-238, limits assumed); experiment: label-free kinetics on OCTET QKe (called SPR in the text), PD-L1 on AHC biosensor
T4 construct: also called hPD-L1
Protocol: (§1) Measurement of label-free kinetics (protein-protein interaction) using OCTET® QKe system (ForteBio, USA) was performed by using an anti-human IgG capture (AHC) biosensor (ForteBio, USA) for human PD-L1 and amine reactive (ARG2) biosensor for CD3εδ chains. […] Sensorgrams were collected over time.

[3] = target: T3, PD-L1 (PD-1/PD-L1 Blockade Bioassay …); experiment: cell-based or functional assay; remark: listed apart in the source
human PD-L1 [4] = target: T4, human PD-L1; experiment: label-free kinetics on OCTET QKe, PD-L1 on AHC biosensor; PD-L1 fixed on AHC biosensor (OCTET QKe)
Protocol: as §1

CD3 (Sino Biological) = experiment: ELISA on CD3, curve fit
Protocol: (§2) Next day, plate was washed once with 200 μl of PBST, and then a surface blocking was performed at room temperature with 5% skim milk for 1-2 hours. […] Each well was then washed three times with 200 μl of PB ST to remove unbound samples. Horseradish peroxidase (HRP)-conjugated anti-human IgG (Fab specific) antibodies (Sigma, USA) were added to wells at a ratio of 1:1000 for a reaction at room temperature. After three times of washing with 200 ul of PBST, a color reaction of HRP was induced using TMB solution (GEhealthcare, USA) in a volume of 10 μl/well. The reaction was terminated by using a stop solution (2.5 M H2504, 100 μl/well). A spectrophotometer was used to measure the absorbance at a wavelength of A450 to calculate the binding affinity.

hCD3εε chains = target: T1, hCD3εε chains; experiment: ELISA on hCD3εε chains
Protocol: as §2

hCD3εγ chains [5] = target: T2, hCD3εγ chains; experiment: ELISA on hCD3εγ chains, curve fit of a flat curve
Protocol: as §2

[6] = target: T5, CD3 on Jurkat luciferase reporter cells (Homo sapiens (Human), UniProt P07766 23-207; P09693 23-182; P04234 22-171); experiment: flow cytometry on Jurkat_NFAT_Luc2P cells, FITC-A; histogram shifted to about 10^3
T5 construct: also called CD3 positive Jurkat cell line with NFAT luciferase reporter

hCD3εγ chains [7] = target: T2, hCD3εγ chains; experiment: ELISA on hCD3εγ chains, curve fit
Protocol: as §2

T3 sequence (Q9NZQ7 19-290 limits assumed): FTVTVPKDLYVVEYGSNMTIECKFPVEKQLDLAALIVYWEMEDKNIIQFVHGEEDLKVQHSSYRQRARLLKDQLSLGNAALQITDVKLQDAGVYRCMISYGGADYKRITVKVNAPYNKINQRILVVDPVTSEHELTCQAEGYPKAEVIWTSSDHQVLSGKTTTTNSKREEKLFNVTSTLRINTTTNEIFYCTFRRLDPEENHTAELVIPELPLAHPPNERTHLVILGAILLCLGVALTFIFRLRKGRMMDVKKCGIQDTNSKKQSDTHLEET
T4 sequence (Q9NZQ7 19-238 limits assumed): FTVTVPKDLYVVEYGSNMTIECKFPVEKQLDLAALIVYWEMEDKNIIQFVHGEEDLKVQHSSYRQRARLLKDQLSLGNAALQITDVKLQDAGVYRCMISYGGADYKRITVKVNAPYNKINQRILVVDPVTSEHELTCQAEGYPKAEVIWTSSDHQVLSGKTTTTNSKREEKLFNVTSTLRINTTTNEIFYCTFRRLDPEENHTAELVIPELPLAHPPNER

Row | EC50; luciferase RLU in the PD-1/PD-L1 Blockade Bioassay, blocked partner PD-1 [1] [nM] | EC50 (read off the curve); luciferase RLU in the PD-1/PD-L1 Blockade Bioassay, blocked partner PD-1 [3] [µg/mL] | Bmax (CD3 (Sino Biological)) [O.D. 450 nm] | Kd (CD3 (Sino Biological)) [nM] | Binder | also measured
1 | 0.0112 | ~0.05 |  |  | YBL-007 (antibody, V domains shown, also called parental anti-PD-L1 antibody; anti-hPD-L1 antibody) VH: QMQLVQSGAEVKKPGSSVKVSCKASGGTFSSYAISWVRQAPGQGLEWMGRIIPILGIANYAQKFQGRVTITADKSTSTAYMELSSLRSEDTAVYYCAKPRDGYNLVAFDIWGQGTMVTVSS VL: QLVLTQPPSVSGAPGQRVTISCTGSSSNIGAGYDVHWYQQLPGAAPKLLIYGDINRPSGVPDRFSGSKSGISASLAITGLQAEDEADYYCQSYDSSLSGGVFGGGTKLTVLR | Kd (human PD-L1 [2]): 0.0132 nM
2 | 0.00429 | ~0.02 | 3.97 | 17.6 | ACE-05 (bispecific antibody, Contains a GGGGS linker between the hinge and the Fv; also called ALiCE molecule ACE-05) heavy 1: not shown heavy 2: not shown light: QLVLTQPPSVSGAPGQRVTISCTGSSSNIGAGYDVHWYQQLPGAAPKLLIYGDINRPSGVPDRFSGSKSGISASLAITGLQAEDEADYYCQSYDSSLSGGVFGGGTKLTVLRTVAAPSVFIFPPSDEQLKSGTASVVCLLNNFYPREAKVQWKVDNALQSGNSQESVTEQDSKDSTYSLSSTLTLSKADYEKHKVYACEVTHQGLSSPVTKSFNRGEC | Kd (human PD-L1 [4]): < 0.0109 nM; binding result (hCD3εε chains): no binding (tested: 100 nM); Kd (fit value of a flat curve) (hCD3εγ chains [5]): 0.035 nM
3 |  | ~0.08 |  |  | ACE-05-VL2 (other) heavy: not shown light: QLVLTQPPSVSGAPGQRVTISCTGSSSNIGAGYDVHWYQQLPGAAPKLLIYGDINRPSGVPDRFSGSKSGISASLAITGLQAEDEADYYCQSYDSSLSGGVFGGGTKLTVLRTVAAPSVFIFPPSDEQLKSGTASVVCLLNNFYPREAKVQWKVDNALQSGNSQESVTEQDSKDSTYSLSSTLTLSKADYEKHKVYACEVTHQGLSSPVTKSFNRGEC | 
4 |  |  | 4.04 | 21.1 | ACE-09 (bispecific antibody) heavy 1: not shown heavy 2: not shown light: QLVLTQPPSVSGAPGQRVTISCTGSSSNIGAGYDVHWYQQLPGAAPKLLIYGDINRPSGVPDRFSGSKSGISASLAITGLQAEDEADYYCQSYDSSLSGGVFGGGTKLTVLRSVAAPSVFIFPPSDEQLKSGTASVVCLLNNFYPREAKVQWKVDNALQSGNSQESVTEQDSKDSTYSLSSTLTLSKADYEKHKVYACEVTHQGLSSPVTKSFNRGEC | 
5 |  |  | 3.67 | 2.69 | UCHT1 (an anti-CD3 antibody from BioLegend, USA) (antibody, V domains shown, Bought antibody; also called parental anti-CD3 antibody) VH: EVQLQQSGPELVKPGPSMKISCKASGYSFTGYTMNWVKQSHGKNLEWMGLINPYKGVSTYNQKFKDKATLTVDKSSSTAYMELLSLTSEDSAVYYCARSGYYGDSDWYFDVWGQGTTLTVFS VL: DIQMTQTTSSLSASLGDRVTISCRASQDIRNYLNWYQQKPDGTVKLLIYYTSRLHSGVPSKFSGSGSGTDYSLTISNLEQEDIATYFCQQGNTLPWTFAGGTKLEIKR | Fold [6]: 35 fold over hIgG; Kd (hCD3εγ chains [7]): 33.3 nM
